Here are results for one molecule from CN110343173A (INST MICROBIOLOGY CAS, dated 2019).

In one assay the target is YFV China病毒 (E蛋白, 病毒颗粒上) (yellow fever virus, strain CNYF01/2016 …, UniProt Q1X881 286-683). The experiment in a line: cell-based or functional assay.
For assay [1], the target named is YFV CNYF01/2016 (YFV-China) 毒株膜蛋白E蛋白胞外区, C端6xHis标签, 大肠杆菌表达复性 (yellow fever virus, strain CNYF01/2016 …, UniProt Q1X881 286-683).
YFV CNYF01/2016 (YFV-China) 毒株膜蛋白E蛋白胞外区, C端6xHis标签, 大肠杆菌表达复性, sequence (Q1X881 286-683, tags left off): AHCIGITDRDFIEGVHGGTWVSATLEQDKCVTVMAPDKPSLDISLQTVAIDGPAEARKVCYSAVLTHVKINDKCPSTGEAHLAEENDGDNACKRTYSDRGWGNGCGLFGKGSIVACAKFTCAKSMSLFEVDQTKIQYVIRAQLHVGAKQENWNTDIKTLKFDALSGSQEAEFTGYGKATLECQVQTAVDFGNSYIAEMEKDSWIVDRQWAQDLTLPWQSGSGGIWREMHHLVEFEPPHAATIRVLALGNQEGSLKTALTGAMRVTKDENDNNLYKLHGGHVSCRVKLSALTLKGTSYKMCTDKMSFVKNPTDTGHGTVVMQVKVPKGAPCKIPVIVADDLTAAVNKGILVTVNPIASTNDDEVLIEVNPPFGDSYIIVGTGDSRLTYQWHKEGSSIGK

YFV China病毒 (E蛋白, 病毒颗粒上), sequence (Q1X881 286-683, tags left off): as above

B1: 人源单克隆抗体YD73 (antibody, V domains shown)
VH: QVQLVQSGAEVKKPGASVKVSCKASGYTFIAYGISWVRQAPGQGLEWMGWISAHNGNTNYAQKFQGRVTVTTDTTTRTAFMELRNLRSDDTAVYYCARAPWEYNYRSSGYYDSPYWGQGTLVTVSS
VL: EIVLTQSPGTLSLSPGERATLSCRASQSVVSTYLAWYQQKPGQAPRLLIYDTSTRATGIPDRFSGSGSGTDFTLTISRLEPEDFAVYYCQHYDSSPPWTFGQGTKVEIKR
Regarding B1, the “中和试验 IC50 (Vero细胞感染, FACS检测阳性细胞比例)” value with YFV China病毒 (E蛋白, 病毒颗粒上) was 3.7 ng/mL. Moreover, the equilibrium dissociation constant (Kd) in assay [1] worked out at 0.588 nM.

As usually defined, the Kd is the concentration at which binding is half-saturated. The low end stands for tighter binding, the high end for weaker binding.
